Assay results as given in paper PMC3017772, “The CaaX specificities of Arabidopsis protein prenyltransferases explain era1 and ggb phenotypes” (BMC Plant Biology, 2010).

How the values were obtained:
[1] = target: recombinant Arabidopsis protein geranylgeranyltransferase type 1 (PGGT1) (Arabidopsis (ecotype Col-0)) (UniProt Q9LX33)
[2] = target: recombinant Arabidopsis protein farnesyltransferase (PFT) (Arabidopsis (ecotype Col-0)) (UniProt Q9LX33)
recombinant Arabidopsis protein farnesyltransferase (PFT) (Arabidopsis (ecotype Col-0)), sequence (Q9LX33 whole entry, chain 1 of 2): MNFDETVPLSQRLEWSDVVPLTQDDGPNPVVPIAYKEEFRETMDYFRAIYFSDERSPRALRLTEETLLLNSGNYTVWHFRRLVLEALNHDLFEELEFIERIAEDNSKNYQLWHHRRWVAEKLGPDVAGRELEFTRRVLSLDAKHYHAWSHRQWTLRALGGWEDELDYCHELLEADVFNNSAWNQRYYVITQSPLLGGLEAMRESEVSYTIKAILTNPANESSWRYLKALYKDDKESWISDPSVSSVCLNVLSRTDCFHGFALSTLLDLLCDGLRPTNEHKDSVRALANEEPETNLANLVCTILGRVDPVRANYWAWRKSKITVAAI
recombinant Arabidopsis protein farnesyltransferase (PFT) (Arabidopsis (ecotype Col-0)), sequence (Q38920 whole entry, chain 2 of 2, further chain): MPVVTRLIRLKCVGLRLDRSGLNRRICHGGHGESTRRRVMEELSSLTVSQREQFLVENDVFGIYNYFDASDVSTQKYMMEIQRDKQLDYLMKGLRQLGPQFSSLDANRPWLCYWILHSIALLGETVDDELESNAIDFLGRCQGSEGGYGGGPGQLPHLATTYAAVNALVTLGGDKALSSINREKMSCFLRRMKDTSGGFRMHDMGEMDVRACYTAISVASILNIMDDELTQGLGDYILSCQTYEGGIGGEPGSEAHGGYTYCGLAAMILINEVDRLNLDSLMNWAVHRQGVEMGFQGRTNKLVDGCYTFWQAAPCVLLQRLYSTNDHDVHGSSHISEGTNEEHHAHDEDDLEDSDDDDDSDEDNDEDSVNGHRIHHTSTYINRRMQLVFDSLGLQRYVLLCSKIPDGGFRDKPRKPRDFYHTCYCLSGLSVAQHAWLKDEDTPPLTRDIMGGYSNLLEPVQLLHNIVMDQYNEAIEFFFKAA

recombinant Arabidopsis protein geranylgeranyltransferase type 1 (PGGT1) (Arabidopsis (ecotype Col-0)), sequence (Q9LX33 whole entry, chain 1 of 2): as the sequence (Q9LX33 whole entry, chain 1 of 2) above
recombinant Arabidopsis protein geranylgeranyltransferase type 1 (PGGT1) (Arabidopsis (ecotype Col-0)), sequence (O80642 whole entry, chain 2 of 2, further chain): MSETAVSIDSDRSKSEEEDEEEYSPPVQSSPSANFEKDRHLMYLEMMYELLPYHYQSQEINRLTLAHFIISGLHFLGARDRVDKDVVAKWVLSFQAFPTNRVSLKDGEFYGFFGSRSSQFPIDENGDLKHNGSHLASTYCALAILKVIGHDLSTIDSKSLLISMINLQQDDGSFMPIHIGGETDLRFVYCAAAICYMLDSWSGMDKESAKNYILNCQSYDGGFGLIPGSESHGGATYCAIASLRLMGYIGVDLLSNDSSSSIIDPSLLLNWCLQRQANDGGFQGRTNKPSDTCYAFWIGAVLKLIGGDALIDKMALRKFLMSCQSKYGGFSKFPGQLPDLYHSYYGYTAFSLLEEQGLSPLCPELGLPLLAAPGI

| Substance | Km for the CaaX protein substrate; in vitro prenylation by purified PGGT1 with [1-3H]geranylgeranyl diphosphate, Lineweaver-Burk analysis [1] | Km for the CaaX protein substrate; in vitro prenylation by purified PFT with [1-3H]farnesyl diphosphate, Lineweaver-Burk analysis [2] |
| --- | --- | --- |
| GFP-BD-CVIL | 17.2 µM | 7 µM |
| GFP-BD-CVIM | 5.8 µM | 5.4 µM |
| GFP-BD-CVII | 19 µM | 6.9 µM |
| GFP-BD-CVIQ | 3.5 µM | 5.5 µM |
